Test results: article doi:10.1101/2025.05.02.651972

Target: recombinant extracellular domain of EGFR (human) (UniProt P00533)
Assay: MST

recombinant epiregulin (from UniProt O14944) (ligand)
Kd: 500 nM
